Assay results published in patent US20250163162A1.

Biological target: IL10 receptor (IL10R) (human) (UniProt Q13651)
Assay: cell-based or functional assay

Chain of IL10 receptor (IL10R) (human) (Q13651 22-578, chain 1 of 2): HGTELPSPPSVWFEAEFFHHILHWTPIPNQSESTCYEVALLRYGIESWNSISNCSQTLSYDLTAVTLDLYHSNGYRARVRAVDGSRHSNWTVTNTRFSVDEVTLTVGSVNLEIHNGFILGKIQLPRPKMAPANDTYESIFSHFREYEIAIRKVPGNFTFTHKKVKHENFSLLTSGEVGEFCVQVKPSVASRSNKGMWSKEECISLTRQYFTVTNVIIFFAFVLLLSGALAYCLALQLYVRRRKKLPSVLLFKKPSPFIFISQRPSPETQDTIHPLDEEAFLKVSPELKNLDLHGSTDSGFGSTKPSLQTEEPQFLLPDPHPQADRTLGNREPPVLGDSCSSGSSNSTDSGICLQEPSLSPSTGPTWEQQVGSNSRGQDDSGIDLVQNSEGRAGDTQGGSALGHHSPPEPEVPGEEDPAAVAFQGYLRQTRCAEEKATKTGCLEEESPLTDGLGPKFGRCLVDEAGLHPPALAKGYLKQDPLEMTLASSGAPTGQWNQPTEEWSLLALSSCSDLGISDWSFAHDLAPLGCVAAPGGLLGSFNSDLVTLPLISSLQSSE
Chain of IL10 receptor (IL10R) (human) (Q08334 20-325, chain 2 of 2, further chain): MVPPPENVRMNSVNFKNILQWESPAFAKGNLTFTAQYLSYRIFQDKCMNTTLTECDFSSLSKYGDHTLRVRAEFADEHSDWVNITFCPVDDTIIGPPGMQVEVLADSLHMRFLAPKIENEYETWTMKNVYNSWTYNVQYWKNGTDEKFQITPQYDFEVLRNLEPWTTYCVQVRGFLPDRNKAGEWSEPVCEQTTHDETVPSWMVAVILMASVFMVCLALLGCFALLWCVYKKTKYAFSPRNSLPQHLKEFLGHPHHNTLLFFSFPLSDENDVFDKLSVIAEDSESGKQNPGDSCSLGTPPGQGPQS

wild-type human IL10 (wt hIL10) (from UniProt P22301 19-178) (ligand)
pSTAT3 MFI, B cells, 0.0001 nM (unstimulated 1193.5): 1160 MFI | pSTAT3 MFI, B cells, 0.001 nM (unstimulated 1193.5): 1140 MFI | pSTAT3 MFI, B cells, 0.01 nM (unstimulated 1193.5): 1220 MFI | pSTAT3 MFI, B cells, 0.1 nM (unstimulated 1193.5): 1780 MFI | pSTAT3 MFI, B cells, 1 nM (unstimulated 1193.5): 3950 MFI | pSTAT3 MFI, B cells, 10 nM (unstimulated 1193.5): 3930 MFI | pSTAT3 MFI, B cells, 100 nM (unstimulated 1045): 2400 MFI | pSTAT3 MFI, B cells, 100 nM (unstimulated 1193.5): 2620 MFI | pSTAT3 MFI, CD4+ T cells, 100 nM (unstimulated 1778): 9660 MFI | pSTAT3 MFI, CD4 T cells, 0.0001 nM (unstimulated 1887): 1970 MFI | pSTAT3 MFI, CD4 T cells, 0.001 nM (unstimulated 1887): 1880 MFI | pSTAT3 MFI, CD4 T cells, 0.01 nM (unstimulated 1887): 2220 MFI | pSTAT3 MFI, CD4 T cells, 0.1 nM (unstimulated 1887): 5170 MFI | pSTAT3 MFI, CD4 T cells, 1 nM (unstimulated 1887): 10700 MFI | pSTAT3 MFI, CD4 T cells, 10 nM (unstimulated 1887): 10800 MFI | pSTAT3 MFI, CD4 T cells, 100 nM (unstimulated 1887): 9560 MFI | pSTAT3 MFI, CD8+ T cells, 100 nM (unstimulated 1288): 8810 MFI | pSTAT3 MFI, CD8 T cells, 0.0001 nM (unstimulated 1446): 1700 MFI | pSTAT3 MFI, CD8 T cells, 0.001 nM (unstimulated 1446): 1430 MFI | pSTAT3 MFI, CD8 T cells, 0.01 nM (unstimulated 1446): 1720 MFI | pSTAT3 MFI, CD8 T cells, 0.1 nM (unstimulated 1446): 4300 MFI | pSTAT3 MFI, CD8 T cells, 1 nM (unstimulated 1446): 8890 MFI | pSTAT3 MFI, CD8 T cells, 10 nM (unstimulated 1446): 9890 MFI | pSTAT3 MFI, CD8 T cells, 100 nM (unstimulated 1446): 9010 MFI | pSTAT3 MFI, Monocytes, 0.0001 nM (unstimulated 2116): 2050 MFI | pSTAT3 MFI, Monocytes, 0.001 nM (unstimulated 2116): 2140 MFI | pSTAT3 MFI, Monocytes, 0.01 nM (unstimulated 2116): 2840 MFI | pSTAT3 MFI, Monocytes, 0.1 nM (unstimulated 2116): 9550 MFI | pSTAT3 MFI, Monocytes, 1 nM (unstimulated 2116): 28900 MFI | pSTAT3 MFI, Monocytes, 10 nM (unstimulated 2116): 30900 MFI | pSTAT3 MFI, Monocytes, 100 nM (unstimulated 1787): 27100 MFI | pSTAT3 MFI, Monocytes, 100 nM (unstimulated 2116): 26600 MFI | pSTAT3 MFI, NK cells, 0.0001 nM (unstimulated 1315): 1310 MFI | pSTAT3 MFI, NK cells, 0.001 nM (unstimulated 1315): 1270 MFI | pSTAT3 MFI, NK cells, 0.01 nM (unstimulated 1315): 1380 MFI | pSTAT3 MFI, NK cells, 0.1 nM (unstimulated 1315): 2280 MFI | pSTAT3 MFI, NK cells, 1 nM (unstimulated 1315): 4620 MFI | pSTAT3 MFI, NK cells, 10 nM (unstimulated 1315): 5700 MFI | pSTAT3 MFI, NK cells, 100 nM (unstimulated 1149): 4380 MFI | pSTAT3 MFI, NK cells, 100 nM (unstimulated 1315): 4790 MFI
